± gives the standard error. For some of these results: This sample holds only a part of the variants without activity.
B1: glmS ribozyme (parent)
chain: AUAAAAGCGCCAGAACUACAGAAAUGUAGUUGACGAGGAGGAGGUUUAUCGAAUUUUCGGCGGAUGCCUCCAAA

How the values were obtained:
Settings in all cases: with glucosamine-6-phosphate
glucosamine-6-phosphate [1] = variants of: B1; assay: kcat; higher = faster cleavage; RNA array
Method in brief: (§1)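 Using a hybridised Cy3 probe at 37 °C, barcoded ribozyme variants transcribed in situ by E. coli RNA polymerase on sequenced MiSeq chips were monitored across tiles imaged over ~14 h. The flow contained glucosamine-6-phosphate from 40 μM to 10 mM in HEPES/KCl/Mg(OAc)2 buffer. Signals were normalised to baseline and to non-cleaving reference variants before per-tile medians were fit to one- or two-exponential decays to yield kobs. Weighted Michaelis–Menten fits across concentrations gave kcat and KM.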

glucosamine-6-phosphate [2] = variants of: B1; assay: KM; higher = weaker cofactor use; RNA array
Method in brief: as §1

glucosamine-6-phosphate [3] = variants of: B1; assay: self-cleavage kobs at 40 uM GlcN6P; higher = faster cleavage; RNA array
Method in brief: as §1

glucosamine-6-phosphate [4] = variants of: B1; assay: self-cleavage kobs at 160 uM GlcN6P; higher = faster cleavage; RNA array
Method in brief: as §1

glucosamine-6-phosphate [5] = variants of: B1; assay: self-cleavage kobs at 640 uM GlcN6P; higher = faster cleavage; RNA array
Method in brief: as §1

glucosamine-6-phosphate [6] = variants of: B1; assay: self-cleavage kobs at 2500 uM GlcN6P; higher = faster cleavage; RNA array
Method in brief: as §1

glucosamine-6-phosphate [7] = variants of: B1; assay: self-cleavage kobs at 10000 uM GlcN6P; higher = faster cleavage; RNA array
Method in brief: as §1

## AUAAAAGCGCCAGAACUACAGAAAUGUAGUUGACGAGGAGGAGGUGUAUCGAAUUUUCGGCGGAAGCCUCUAAA [U46G U65A C71U]
glucosamine-6-phosphate [1]
  kcat: 0.00287 ± 0.00028 s⁻¹
glucosamine-6-phosphate [2]
  KM: 2.14 ± 0.34 mM
glucosamine-6-phosphate [3]
  self-cleavage kobs at 40 uM GlcN6P: 4.68e-05 ± 1.3e-05 s⁻¹
glucosamine-6-phosphate [4]
  self-cleavage kobs at 160 uM GlcN6P: 0.000191 ± 6.8e-05 s⁻¹
glucosamine-6-phosphate [5]
  self-cleavage kobs at 640 uM GlcN6P: 0.000735 ± 0.00016 s⁻¹
glucosamine-6-phosphate [6]
  self-cleavage kobs at 2500 uM GlcN6P: 0.00173 ± 0.00035 s⁻¹
glucosamine-6-phosphate [7]
  self-cleavage kobs at 10000 uM GlcN6P: 0.00224 ± 0.00038 s⁻¹

## AUAAAAGCGUCGGAACUACAGAAAUGUAGUUGACGAGGAGGAGGUUUAUCGAAUUUUCGGCGGAUGCCUCCAAA [C10U A12G]
glucosamine-6-phosphate [1]
  kcat: 2.19e-05 ± 1.8e-06 s⁻¹
glucosamine-6-phosphate [2]
  KM: 2.15 ± 0.87 mM

## AUAAAAGCGCCAGAACUACAGAAAUGUAGUUGACGAGGAGGAGGUUUAUCGGAUGUUCGGCGGAUGCCUCCAAA [A52G U55G]
glucosamine-6-phosphate [1]
  kcat: 0.00167 ± 0.00021 s⁻¹
glucosamine-6-phosphate [2]
  KM: 3.17 ± 0.56 mM
glucosamine-6-phosphate [4]
  self-cleavage kobs at 160 uM GlcN6P: 8.73e-05 ± 8.7e-06 s⁻¹
glucosamine-6-phosphate [5]
  self-cleavage kobs at 640 uM GlcN6P: 0.000252 ± 2.5e-05 s⁻¹
glucosamine-6-phosphate [6]
  self-cleavage kobs at 2500 uM GlcN6P: 0.000786 ± 7.4e-05 s⁻¹
glucosamine-6-phosphate [7]
  self-cleavage kobs at 10000 uM GlcN6P: 0.00124 ± 0.00013 s⁻¹

## AUAAAAGCGCCAGAACUACAGAAAUGUAGUUGACGAGGAGGAGGGUUAUCGAAUUUUCGGCGGAUGCCUCCAAA [U45G]
glucosamine-6-phosphate [1]
  kcat: 0.011 ± 0.0012 s⁻¹
glucosamine-6-phosphate [2]
  KM: 2.24 ± 0.3 mM
glucosamine-6-phosphate [3]
  self-cleavage kobs at 40 uM GlcN6P: 0.000203 ± 3.8e-06 s⁻¹
glucosamine-6-phosphate [4]
  self-cleavage kobs at 160 uM GlcN6P: 0.000679 ± 2.9e-05 s⁻¹
glucosamine-6-phosphate [5]
  self-cleavage kobs at 640 uM GlcN6P: 0.00227 ± 5.8e-05 s⁻¹
glucosamine-6-phosphate [6]
  self-cleavage kobs at 2500 uM GlcN6P: 0.00566 ± 0.00017 s⁻¹
glucosamine-6-phosphate [7]
  self-cleavage kobs at 10000 uM GlcN6P: 0.00968 ± 0.00036 s⁻¹

## AUAAAAGCGCCAGACCUACAGAAAUGUAGUUGACGAGGAGGAGGUUUAUCGACUUUUCGGCGGAUGCCUCCAAA [A15C A53C]
glucosamine-6-phosphate [1]
  kcat: 0.00123 ± 0.00037 s⁻¹
glucosamine-6-phosphate [2]
  KM: 2.9 ± 1.4 mM
glucosamine-6-phosphate [3]
  self-cleavage kobs at 40 uM GlcN6P: 2.74e-05 ± 1.3e-05 s⁻¹
glucosamine-6-phosphate [4]
  self-cleavage kobs at 160 uM GlcN6P: 5.14e-05 ± 1.6e-05 s⁻¹
glucosamine-6-phosphate [5]
  self-cleavage kobs at 640 uM GlcN6P: 0.000308 ± 6e-05 s⁻¹
glucosamine-6-phosphate [6]
  self-cleavage kobs at 2500 uM GlcN6P: 0.000472 ± 0.00011 s⁻¹
glucosamine-6-phosphate [7]
  self-cleavage kobs at 10000 uM GlcN6P: 0.00102 ± 0.00019 s⁻¹

## AUAAAAGCGCCAGAACUACAGAAAUGUAGUAGACGAGGAGGAGGUUUAUCGAUUUUUCGGCGGAUGCCUCCAAA [U31A A53U]
glucosamine-6-phosphate [1]
  kcat: 0.02 ± 0.007 s⁻¹
glucosamine-6-phosphate [2]
  KM: 3.76 ± 1.7 mM
glucosamine-6-phosphate [3]
  self-cleavage kobs at 40 uM GlcN6P: 0.000232 ± 3.6e-05 s⁻¹
glucosamine-6-phosphate [4]
  self-cleavage kobs at 160 uM GlcN6P: 0.000911 ± 0.00027 s⁻¹
glucosamine-6-phosphate [5]
  self-cleavage kobs at 640 uM GlcN6P: 0.00278 ± 0.00064 s⁻¹
glucosamine-6-phosphate [6]
  self-cleavage kobs at 2500 uM GlcN6P: 0.00529 ± 0.0016 s⁻¹
glucosamine-6-phosphate [7]
  self-cleavage kobs at 10000 uM GlcN6P: 0.0181 ± 0.0034 s⁻¹

## AUAAAGGCGCCAGAACUACAGAAAUGUAGUGGACGAGGAGGAGGUUUAUCGAAUUUUCGGCGGAUGCCUCCAAA [A6G U31G]
glucosamine-6-phosphate [1]
  kcat: 0.000452 ± 9.7e-05 s⁻¹
glucosamine-6-phosphate [2]
  KM: 4.99 ± 1.6 mM
glucosamine-6-phosphate [5]
  self-cleavage kobs at 640 uM GlcN6P: 4.67e-05 ± 9.4e-06 s⁻¹
glucosamine-6-phosphate [6]
  self-cleavage kobs at 2500 uM GlcN6P: 0.000183 ± 3.2e-05 s⁻¹
glucosamine-6-phosphate [7]
  self-cleavage kobs at 10000 uM GlcN6P: 0.000281 ± 5.8e-05 s⁻¹

## AUAAAUGCGCCAGAACUACAGAAAUGUAGUGGACGAGGAGGAGGUUUAUCGAAUUUUCGGCGGAUGCCUCCAAA [A6U U31G]
glucosamine-6-phosphate [1]
  kcat: 8.41e-05 ± 1e-05 s⁻¹
glucosamine-6-phosphate [3]
  self-cleavage kobs at 40 uM GlcN6P: < 1e-05 s⁻¹
glucosamine-6-phosphate [6]
  self-cleavage kobs at 2500 uM GlcN6P: 7.42e-05 ± 1.9e-05 s⁻¹
glucosamine-6-phosphate [7]
  self-cleavage kobs at 10000 uM GlcN6P: 7.27e-05 ± 1.2e-05 s⁻¹

## AUAAAAGCGCCAGAAUUACAGAAAUGUAGUUGACGAGGAGGAGGUUUAUCGAAUUUUCGGCGGAUGCCUCCAAA [C16U]
glucosamine-6-phosphate [1]
  kcat: 0.0542 ± 0.005 s⁻¹
glucosamine-6-phosphate [2]
  KM: 2.23 ± 0.23 mM
glucosamine-6-phosphate [3]
  self-cleavage kobs at 40 uM GlcN6P: 0.000969 ± 1.7e-05 s⁻¹
glucosamine-6-phosphate [4]
  self-cleavage kobs at 160 uM GlcN6P: 0.00308 ± 0.0002 s⁻¹
glucosamine-6-phosphate [5]
  self-cleavage kobs at 640 uM GlcN6P: 0.0121 ± 0.00055 s⁻¹
glucosamine-6-phosphate [6]
  self-cleavage kobs at 2500 uM GlcN6P: 0.0272 ± 0.0015 s⁻¹
glucosamine-6-phosphate [7]
  self-cleavage kobs at 10000 uM GlcN6P: 0.0458 ± 0.0022 s⁻¹

## AUAAAAGCGCCAGAACUACAGAAAUGUAGUUGACGAGAAGGAGGUUUAUCGAAUUUUCGGAGGAUUCCCUCAAA [G38A C61A G66U U69C C70U]
glucosamine-6-phosphate [1]
  kcat: 4.44e-05 ± 6.1e-06 s⁻¹

## AUAAAAGCGCCAUAACUACAGAAAUGUAGUUGACGAGGAGGAGGUUUAUCGAAUUUUCGGCGUAUGCCUCCAAA [G13U G63U]
glucosamine-6-phosphate [1]
  kcat: < 1e-05 s⁻¹
glucosamine-6-phosphate [3]
  self-cleavage kobs at 40 uM GlcN6P: < 1e-05 s⁻¹

## AUAAAAGCGCCAGAAGUACAGAAAUGUAGUUGACGAGGAGGAGGUUUAUCGAAUCUUCGGCGGAUGCCUCCAAA [C16G U55C]
glucosamine-6-phosphate [1]
  kcat: 0.00146 ± 0.00056 s⁻¹
glucosamine-6-phosphate [3]
  self-cleavage kobs at 40 uM GlcN6P: 4.65e-05 ± 1.3e-05 s⁻¹
glucosamine-6-phosphate [4]
  self-cleavage kobs at 160 uM GlcN6P: 0.000158 ± 7.7e-05 s⁻¹
glucosamine-6-phosphate [5]
  self-cleavage kobs at 640 uM GlcN6P: 0.000574 ± 8.2e-05 s⁻¹
glucosamine-6-phosphate [6]
  self-cleavage kobs at 2500 uM GlcN6P: 0.000702 ± 0.00013 s⁻¹
glucosamine-6-phosphate [7]
  self-cleavage kobs at 10000 uM GlcN6P: 0.00213 ± 0.00033 s⁻¹

## AUAAAAGCGCCAAAACUACAGAAAUGUAGUUGACGAGGAGGAGGGUUAUCGAAUUUUCGGCGGAUGCCUCCAAA [G13A U45G]
glucosamine-6-phosphate [1]
  kcat: 8.96e-05 ± 7.9e-06 s⁻¹
glucosamine-6-phosphate [2]
  KM: 4.31 ± 0.84 mM
glucosamine-6-phosphate [6]
  self-cleavage kobs at 2500 uM GlcN6P: 3.13e-05 ± 8.3e-06 s⁻¹
glucosamine-6-phosphate [7]
  self-cleavage kobs at 10000 uM GlcN6P: 6.32e-05 ± 1e-05 s⁻¹

## AUAAAAGCGCCAUAACUACAGAAAUGUAGUUGACGAGGAGGAGGUUUAUCGAAUUUUCGGCGGAGGCCUCCAAA [G13U U65G]
glucosamine-6-phosphate [1]
  kcat: 0.000372 ± 2.8e-05 s⁻¹
glucosamine-6-phosphate [2]
  KM: 3.75 ± 0.54 mM
glucosamine-6-phosphate [5]
  self-cleavage kobs at 640 uM GlcN6P: 5.82e-05 ± 1.2e-05 s⁻¹
glucosamine-6-phosphate [6]
  self-cleavage kobs at 2500 uM GlcN6P: 0.000136 ± 2.7e-05 s⁻¹
glucosamine-6-phosphate [7]
  self-cleavage kobs at 10000 uM GlcN6P: 0.000276 ± 3.5e-05 s⁻¹

## AUAAAAGCGCCAUAACUACAGAAAUGUAGUUCACGAGGAGGAGGUUUAUCGAAUUUUCGGCGGAUGCCUCCAAA [G13U G32C]
glucosamine-6-phosphate [1]
  kcat: 0.000465 ± 0.00015 s⁻¹
glucosamine-6-phosphate [5]
  self-cleavage kobs at 640 uM GlcN6P: 7.27e-05 ± 1e-05 s⁻¹
glucosamine-6-phosphate [6]
  self-cleavage kobs at 2500 uM GlcN6P: 0.000121 ± 1.6e-05 s⁻¹
glucosamine-6-phosphate [7]
  self-cleavage kobs at 10000 uM GlcN6P: 0.000328 ± 2.8e-05 s⁻¹

## AUAAAAACGCCAGAACUACAGAAAUGUAGUUGACGAGGAGGAGGCUUAUCGAAUUUUCGGCGGAUGCCUCCAAA [G7A U45C]
glucosamine-6-phosphate [1]
  kcat: < 1e-05 s⁻¹
glucosamine-6-phosphate [5]
  self-cleavage kobs at 640 uM GlcN6P: < 1e-05 s⁻¹
